Reference: paper PMC11317129, “Bacterial histone HBb from Bdellovibrio bacteriovorus compacts DNA by bending” (Nucleic Acids Research, 2023)

T1: HBb (Bd0055) (Bdellovibrio bacteriovorus HD100, UniProt Q6MRM1 1-64)
T1 sequence: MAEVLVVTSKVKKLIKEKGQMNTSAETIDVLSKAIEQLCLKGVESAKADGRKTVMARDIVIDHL

B1: 80 bp DNA [Cy5] (dsDNA)
DNA 1: CCGTACTGTCGTCTGCGGCCTTTGATTATCAATTAAAGCGTTCTACGGCGTTTTTGATCGCTCAACGTGCGGAGCTAGAT
DNA 2: ATCTAGCTCCGCACGTTGAGCGATCAAAAACGCCGTAGAACGCTTTAATTGATAATCAAAGGCCGCAGACGACAGTACGG
B2: bacterial histone HBb (Histone of B. bacteriovorus) (natural protein, Bdellovibrio bacteriovorus)
chain: T1 sequence
notes: theoretical molecular weight 7 kDa; Homodimer by SEC-MALS and in the crystals; also called Bd0055
B3: 80 bp-GC50 [Cy5] (dsDNA)
DNA 1: TTAAAGCCCGTTAAAGCCCGTTAAAGCCCGTTAAAGCCCGTTAAAGCCCGTTAAAGCCCGTTAAAGCCCGTTAAAGCCCG
DNA 2: CGGGCTTTAACGGGCTTTAACGGGCTTTAACGGGCTTTAACGGGCTTTAACGGGCTTTAACGGGCTTTAACGGGCTTTAA

Columns and labels:
HMfB = HMfB (Methanothermus fervidus, UniProt P19267 1-69); experiment: MST; unit printed as M (symbol lost); 20 nM in HMfB titration; MST: 20 mM Tris pH 8.0, 150 mM NaCl, 2.5 mM 2-mercaptoethanol, 37 C 10 min (HMfB RT 5 min); EMSA 80 bp: 25 mM Tris pH 8.0, 50 mM NaCl, 50 mM KCl, 37 C; ladder EMSA/MNase/circularization: 50 mM Tris pH 7.0, 75 mM KCl, RT; details: protein: recombinant; tags: N-terminal His6 (vector pET28a); chain copies: 4; label: 5' Cy5 on strand 1; blunt
Sequence of HMfB (P19267 whole entry): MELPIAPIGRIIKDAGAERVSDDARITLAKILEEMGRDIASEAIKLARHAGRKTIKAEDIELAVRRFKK

HBb (Bd0055) [1] = biological target: T1, HBb (Bd0055); experiment: MST; unit printed as M (symbol lost); text says lower micromolar; 10 nM DNA; MST: 20 mM Tris pH 8.0, 150 mM NaCl, 2.5 mM 2-mercaptoethanol, 37 C 10 min (HMfB RT 5 min); EMSA 80 bp: 25 mM Tris pH 8.0, 50 mM NaCl, 50 mM KCl, 37 C; ladder EMSA/MNase/circularization: 50 mM Tris pH 7.0, 75 mM KCl, RT; details: protein: recombinant; tags: N-terminal His6 (vector pETHis1a); chain copies: 2; label: 5' Cy5 on strand 1; blunt
[2] = biological target: the molecule itself; experiment: SEC-MALS; purified HBb in solution; 1260 Infinity II HPLC with miniDAWN TREOS and Optilab T-rEX detectors
HBb (Bd0055) [3] = biological target: T1, HBb (Bd0055); experiment: MST; unit printed as M (symbol lost); 10 nM DNA; MST: 20 mM Tris pH 8.0, 150 mM NaCl, 2.5 mM 2-mercaptoethanol, 37 C 10 min (HMfB RT 5 min); EMSA 80 bp: 25 mM Tris pH 8.0, 50 mM NaCl, 50 mM KCl, 37 C; ladder EMSA/MNase/circularization: 50 mM Tris pH 7.0, 75 mM KCl, RT; details: protein: recombinant; tags: N-terminal His6 (vector pETHis1a); chain copies: 2; label: 5' Cy5 on strand 1; blunt

| Binder | Kd (HMfB) [µM] | Kd (HBb (Bd0055) [1]) [µM] | stoichiometry N [2] | Kd (HBb (Bd0055) [3]) [µM] |
| --- | --- | --- | --- | --- |
| B1 | 0.83 ± 0.27 | 4.84 ± 0.97 | – | – |
| B2 | – | – | 2 | – |
| B3 | 3.92 ± 1.16 | – | – | 11.1 ± 1.07 |
